The labels stand for the following.
B1: C3111 (antibody, V domains shown)
VH: EVQLVESGGRVVRPGESLRLSCAASGFNFNDYGMSWVRQVPGKGLEWVSGINWNGAISGYVDSVKGRFIISRDNAKNSLYLQMNSLRAEDTALYHCARAYCGDECYSLLVRGDALDIWGQGTMVTVSS
VL: QSVLTQPPSVSAAPGQTVTISCSGSSSNIGMNDVSWYQHLPGTAPKLLIYDSHKRPSGIPDRFSGSNSGTSATLGITGLQTGDEAHYYCGAWDSSLSAVVFGGGTMLAVL
notes: source: 293-6E cells, transfected, purified (Protein G Sepharose)
B2: C1002 (antibody, V domains shown)
VH: EVQLVESGGGLVQPGGSLRLSCAASEFIVSSNYMTWVRQAPGKGLEWVSIMYPGGSTFYADSVKGRFTISRDNSKNTLYLQINRLRAEDTAVYYCARDIAGRLDYWGQGTLVTVSS
VL: DIQMTQSPSSLSASVGDRVTITCQASQDINNYLNWYQQKPGKAPKLLIYDASNLETGVPSRFSGSGSGTDFSFTISSLQPEDIATYYCQQYDNLSRLTFGGGTKVEIK
notes: as for B1
B3: C996 (antibody, V domains shown)
VH: EVQLVESGGGLVQPGGSLRLSCVASGFTSTNYDMHWVRQAPGRGLQWVSSIGTAGDTYYPGSVRGRFTISRENAKNSLDLQMNSLRVGDTAVYYCARGQRGYYDRSGYYWGWRAFDIWGQGTMVTVSS
VL: SYELTQPPSVSVAPGQTARITCGGNNIGNKSVYWYQQKPGQAPVLVVYDDSGRPSGIPERFSGSNSANTATLTISRVEAGDEADYYCQVWDNNSDQFGGGTKLTVL
notes: as for B1
B4: C2593 (antibody, V domains shown)
VH: QVQLVQSGAEVKKPGSSVKVSCKASGGTFNSYAITWVRQAPGQGLEWMGGIIFIFDTANYAQKFQGRVTITADESTSTVYMELSSLRSEDTAVYYCARPGAELRDHYYYYGMDVWGQGTTVTVSS
VL: DIVMTQSPLSLPVTPGEPASISCRSTQSLLHSNGNNYLDWYLQKPGQSPQLLIYLASNRAPGVPDRFSGSGSGTDFTLRISRVEAEDVGVYYCMQALQTPPTFGQGTRLEIK
notes: as for B1
B5: C1068 (antibody, V domains shown)
VH: QVQLVESGGGVVQPGRSLRLSCAASGFTFSTFAMHWVRQAPGKGLEWVAVTSYDGSNKYYADSVKGRFTISRDNSKNTLYLQMNSLRAEDTAVYYCARGLLWFGESEYFQHWGQGTLVTVSS
VL: not shown
notes: as for B1
B6: C022 (antibody, V domains shown)
VH: QVQLQESGPGLVKPSETLSVTCTVSGGSISSSRYYWGWIRQPPGKGLEWIGSIYYSGSTYYNPSLKSRVTISVDTSKNQFSLKLSSVTAADTAVYYCARHAAAYYDRSGYYFIEYFQHWGQGTLVTVSS
VL: DIQMTQSPSTLSASVGDSVTITCRASQSISSWLAWYQQKPGKAPKLLIYKASSLESGVPSRFSGSGSGTEFTLTISSLQPDDFATYYCQQYNNYRYTFGQGTKLEIK
notes: as for B1
B7: C2588 (antibody, V domains shown)
VH: QVQLVQSGAEVKKPGSSVKVSCKASGDTFNIYAINWVRQAPGQGLEWMGRIIPRFGMANYAQKFQGRVTMTADKSTSTAYMDLISLKSEDTAVYYCATSAYLSGSGHYFDYWGQGTLVTVSS
VL: EIVLTQSPATLSLSPGERATLSCRASQSVGGSFLAWYQQKPGQAPRLLIYGASSRATGIPDRFSGSGSGTDFTLTISRLEPEDFAVYFCQQYASSRTFGQGTKVEIK
notes: as for B1
B8: C099 (antibody, V domains shown)
VH: EVQLVESGGGLIQPGGSLRLSCAASGITVSSNYMSWVRQAPGKGLEWVSVMYAGGSTFYADSVKGRFTISRDDSKNTLFLQMNSLRAEDTAIYYCARDLYSSGGTDIWGQGTMVTVSS
VL: EIVLTQSPGTLSLSPGERATLSCRASQSIGSSYLAWYQQKPGLAPRLLIYGASRRATGIPDKFSGSGSGADFTLTISRLEPEDFAVYYCQQYGSSPGTFGQGTKVEIK
notes: as for B1
B9: C3060 (antibody, V domains shown)
VH: QVQLQESGPGLLKPSQTLSLICTVSGGSISSGDYYWNWIRQTPGKGLEWIGYIYYSGITYYNPSLKSRLSISLDTPKNQFSLKLTSVTAADTAVYYCATGPPTVTTENFDNWGQGTLVTVSS
VL: QSVLTQPPSVSAAPGQKVTISCSGSSSNIGNYYVSWYQQLPGTAPQLVIYDNNKRPSGIPDRFSGSKSGTSATLAITGLQTGDEADYYCGTWDASLNAGVFGGGTRLTVL
notes: as for B1
B10: C978 (antibody, V domains shown)
VH: QVQLVQSGAEVKKPGSSVKVSCKASGATFSNYIISWVRQAPGQGLEWMGRTIPLLDIANYAQKFQGRVTITADKSTRIVYMHLGSLTSEDTAVYYCATGKGYSSSSAAYYFDHWGQGTLVTVSS
VL: QSVLTQPPSVSGAPGQRVTISCTGTNSNIGAGYDIHWYQQLPGTAPKLLIYGSNNRPSGVPDRFSGSKSGTSASLAITGLQAEDEADYYCQSYDSSLSGSEVFGGGTKLTVL
notes: as for B1
B11: C971 (antibody, V domains shown)
VH: EVQLVESGGGLVKPGGSLRLSCAASGFTFNNAWMTWVRQAPGKGLEWVGRIKSKTDGGTTDYGTPAKGRFTISRDDSKNTLYLQMKSLRTEDTAVYYCTTVDVQGIWELLENDAFDIWGQGTMVTVSS
VL: EIVLTQSPGTLSLSPGERATLSCRATQAISSTYLAWYQQKPGQAPRLLIYGAFSRAPGIPDRFSGSGSETDFTLTISRLEPEDFAVYYCQQSDRSPFTFGPGTKVDIK
notes: as for B1
B12: C1040 (antibody, V domains shown)
VH: QVQLVESGGGVVQPGRSLRLSCAASGFSFINYNMHWVRQAPGKGLEWVAVIWYDGSNKYYADSVKGRFTISRDNSKNTLYLQMNSLRVEDTAVYYCARDPAITEAEIDYWGQGTLVTVSS
VL: DVVMTQSPLSLPVTLGQAASISCRSSQSLVHSDGNTYLNWFQQRPGQSPRRLIYRVSNRDSGVPDRFSASGSGTDFTLKISRVEAEDVGVYYCMQGTHWPWTFGQGTKVEIK
notes: as for B1
B13: C3054 (antibody, V domains shown)
VH: EVQLVESGGGLGQPGGSLRLSCVASGFSFSTYSMNWVRQAPGKGLEWLSYINAGSTTIYSADSVTGRFSISRDNAKNSLYLHMNSLRADDTAVYYCARGVPFDYWGQGTLVTVSS
VL: DIVMTQTPLSLPVTPGEPASISCRSSRSLLDSDDADTYLDWYLQKPGQSPQLLIYTLSYRASGVPDRFSGSGSGTDFTLKISRVEAEDVGVYYCMQRIQFPWTFGQGTKVEIK
notes: as for B1
B14: C963 (antibody, V domains shown)
VH: QVQLVQSGAEVKKPGSSVRVSCKASGGTFSSFTITWVRQAPGQGLEWMGRIIPNLNIPNYAQRFQGRITITAEKSTSTAYLELSSLRSEDTAVYYCARGVGYSGSGSNWYFDLWGRGTLVTVSS
VL: QSVLTQPPSVSGAPGQRVTISCTGSSSNIGAGYDVHWYQQLPGTAPKLLISGHINRPSGVPDRFSGSTSGTSASLAITGLQAEDEADYYCQSYDSSLSDSVFGGGTKLTV
notes: as for B1
B15: C080 (antibody, V domains shown)
VH: EVQLVQSGAEVKKPGESLNISCKASGYSFTIYWIAWVRQLPGKGLEWMGIIYPGDSDTRYSPSFQGQVTISADKSISTAYLQWRSLKASDSAVYYCARGVAVDWYFDLWGRGTLVTVSS
VL: QSVLTQPPSVSGAPGQRVTISCAGSSSNIGAGFDVYWYQQLPGTAPKLLIYGNNNRPSGVPDRFSGSKSGTSASLAITGLQAEDEADYYCQSSGSVLSDLYVFGTGTKVTVL
notes: as for B1
B16: C3123 (antibody, V domains shown)
VH: QVQLQESGPGLVKPSQTLSLTCAVSGDSVSRGGFYWTWIRQLPGMGLECIGYIDYSGSTHYNPSLKSRVTISLDTSNNQFSLKMTSVTAADTALYYCARGAVPGIGWFDPWGQGTLVTVSS
VL: SYELTQPPSVSVAPGKTASISCGGNNIATKSVHWYQQKPGQAPALVIYYDSDRPSGIPERFSGSNSGNTATLTISRVEAGDEAAYYCQVWESSGDHVVFGGGTKLTVL
notes: as for B1
B17: C118 (antibody, V domains shown)
VH: QVQLVESGGGVVQPGRSLRLSCAASGFTFSNYAMHWVRQAPGKGLEWVAVISYDGSNKYYADSVKGRFTISRDNSKNTLYLQMNSLRAEDTAIYYCASGYTGYDYFVRGDYYGLDVWGQGTTVTVSS
VL: QPVLTQSPSASASLGASVKLTCTLSSGHSSYAIAWHQQQPEKGPRYLMKLNTDGSHSKGDGIPDRFSGSSSGAERYLTISSLQSEDEADYYCQTWGTGILVFGGGTKLTVL
notes: as for B1
B18: C1049 (antibody, V domains shown)
VH: EVQLVQSGAEVKKPGESLKISCKSSGYSFISHWIGWVRQMPGKGLEWMGIIWPGDSDTRYSPSFQGQVTISVDKSITTVYLQWSSLKAADTAMYYCARRGSSWEVDYWGQGTLVTVSS
VL: not shown
notes: as for B1
B19: C3083 (antibody, V domains shown)
VH: EVQLVESGGGFVRPGGSLRLSCSTSGFTFSMFAMHWVRQAPGKGLEYVSGVSSNGLNTYYADSVKGRLVISRDDSKNTLYLQMTGLRVEDTAVYYCVKDDDFGDPGYGYHLDYWGQGTLVTVSS
VL: QSALTQPASVSGSPGQSITISCTGTSSDVGGYNYVSWFQQHPGKAPKLVIFEVSNRPSGISDRFSGSKSGNTASLTISELQAEDEADYYCSSYTSRIPIIFGTGTKVTV
notes: as for B1
B20: C986 (antibody, V domains shown)
VH: EVQLVQSGAEVKKPGETLKISCKGSGDSFSNYWIGWVRQSPGKGLEWMAIVYPGDSDARYSPSFQGQVTISADKSVTTAYLKWSSLKASDTAIYYCVRGLPVDWYFDLWGRGTLVTVSS
VL: QSVLTQPPSVSGAPEQRVTISCTGSSSNIGAGHDVHWYQQLPGTAPKLLIYNNNNRPSGVPDRFSGSKSGASASLAISGLQAEDEAEYYCQSYDKSLSVLYVLGTGTKVTV
notes: as for B1
B21: C1047 (antibody, V domains shown)
VH: EVQLVQSGAEVKKPGESLKISCKGSGYSFISYWIVWVRQMPGKGLEWIGIIYPGDSDTIYSPSFQGQVTLSADKSISTAYLQWSSLKASDTAIYYCAKMVTSGTSYYETRGYASSGPFDNWGQGTLVTVSS
VL: DIQLTQSPSSLSASVGDRVTITCRASQGISSALAWYQQKPGKAPKLLIYDASSLESGVPSRFSGSGSGTDFTLTISSLQPEDFATYYCQQSDNFGPGTKVDI
notes: as for B1
B22: C3057 (antibody, V domains shown)
VH: QVQLVQSGGGLVQPGGSLRLSCEASGLSVSRNYMRWVRQAPGKGLEWVSLIYSGGSTFYADSVKGRFTISRDNSKNTLYLQMTSLRAEDTAVYYCARDLVDYGMDVWGHGTTVTVSS
VL: DIQLTQSPSFLSASVGDRVTITCRASQGISNYLAWYQQKPGKAPQLLIYAASTLQSGVPSRFSGSGSGTEFTLTISSLQPEDFATYFCQQLNSDVITFGQGTRLEIK
notes: as for B1

Drawing on PMC9849103 (Nature Communications, 2023), this text covers Kd for 22 molecules.

The assay concerns the target WT RBD (SARS-CoV-2 Wuhan-Hu-1 spike receptor binding domain) (SARS-CoV-2 (Wuhan-Hu-1), UniProt P0DTC2). Briefly: BLI. As to conditions: both partners purified.
By Kd is commonly meant the concentration at which binding is half-saturated. High values mean lower affinity, low ones higher affinity. With B1, binding was put at a Kd of 0.236 nM.

As to B2, the Kd came to 0.441 nM. Against the preceding molecule, the Kd is about 1.9-fold higher.

Molecule B3 gave a Kd of 3.72 nM. Against the preceding molecule, the Kd is about 8.4-fold higher.

The molecule B4 gave a dissociation constant Kd of 1.37 nM.

In the case of B5, the Kd was determined as 28.8 nM.

For B6, the affinity, expressed as Kd, was 3.15 nM.

For B7, the Kd amounted to 1.47 nM. Compared with the last molecule, the Kd is about 2.1-fold lower.

On to B8, for which binding was characterised by a dissociation constant (Kd) of 0.00214 nM.

As to B9, the Kd was 1.1 nM.

Take B10: the Kd was 1.33 nM.

B11 displayed a dissociation constant Kd of 0.949 nM.

B12 returned a Kd of 2.08 nM.

For B13, the dissociation constant Kd is 2.49 nM.

In turn, B14 displayed an equilibrium dissociation constant (Kd) of 0.653 nM.

As for B15, the equilibrium dissociation constant (Kd) was 0.286 nM.

For B16, the Kd stood at 1.57 nM.

B17 showed a Kd of 2.66 nM.

As for B18, the Kd was determined as 2.35 nM.

Molecule B19 displayed a Kd of 0.201 nM.

As to B20, the Kd is 0.472 nM.

B21: the Kd amounted to 4.99 nM. Against the preceding molecule, the Kd is about 11-fold higher.

As for B22, the equilibrium dissociation constant (Kd) was 2.08 nM.
